Patent US20090191228A1
pKd: −log10 of the molar value.

How the values were obtained:
[1] = molecular target: dH5-0 (recombinant hemagglutinin 5 of H5N1 strain A/Vietnam/1203/04, stock as supplied by Protein Sciences) (influenza virus H5N1 strain A/Vietnam/1203/04); assay: ELISA, immobilized H5 forms, Fn F4-5 in solution; normalized to cdH5-0
[2] = molecular target: dH5-0 (recombinant hemagglutinin 5 of H5N1 strain A/Vietnam/1203/04, stock as supplied by Protein Sciences) (influenza virus H5N1 strain A/Vietnam/1203/04)

Substance | Normalized affinity, kD (%) [1] [%] | Bmax [2] | pKd [2]
fourth and fifth finger domain of fibronectin (Fn F4-5) (from UniProt P02751 183-275) | 103 | – | –
tissue type plasminogen activator (tPA) (from UniProt P00750 36-562) (enzyme) | – | 0.32 | 7.02
